# Patent publication US20240076396A1 (Regeneron, published 2024)
# T1: human GITR expressed on the cell surface (human, UniProt Q9Y5U5 26-241)
# T1 construct: also called hGITR; Jurkat/hCD20/hGITR cells
# T1 sequence: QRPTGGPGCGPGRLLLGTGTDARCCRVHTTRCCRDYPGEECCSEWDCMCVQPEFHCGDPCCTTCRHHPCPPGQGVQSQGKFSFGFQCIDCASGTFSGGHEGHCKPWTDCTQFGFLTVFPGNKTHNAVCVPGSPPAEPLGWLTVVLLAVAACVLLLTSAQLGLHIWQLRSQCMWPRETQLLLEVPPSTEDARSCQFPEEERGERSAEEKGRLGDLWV
# Tests used:
# [1] = biological target: cynomolgus monkey GITR expressed on the cell surface (Macaca fascicularis (cynomolgus monkey)); test: cell-based or functional assay
# [2] = biological target: T1, human GITR expressed on the cell surface; test: flow cytometry on Jurkat/hCD20/hGITR cells; max MFI over secondary antibody alone
# Method: Flow cytometry was used to evaluate mAb1 binding to Jurkat/hCD20/hGITR cells and Jurkat/hCD20/MfGITR cells. Jurkat/hCD20 cells were used as a negative control cell line for GITR binding. Cells were added to a 96-well V-bottom plate (2×10⁵ to 4×10⁵ cells/well) and incubated in Fc block solution, followed by successive incubation on ice with primary antibody (mAb1 or IgG1 isotype control) at final concentrations ranging from 18 pM to 300 nM and a secondary antibody (AF647-conjugated anti-human IgG) at 5 μg/mL. Cells were then stained with LIVE/DEAD Fixable Green Dead Cell Stain according to the manufacturer's instructions. […] Data were analyzed with Flow.lo software. For EC₅₀ (effective concentration at 50% activity) determinations, measured geometric MFI values were analyzed using a 4-parameter logistic equation over a 9-point response curve with GraphPad Prism. The fold binding was determined by taking the ratio of the highest MFI on the curve to the MFI of the wells containing secondary antibody only.
# ^a The maximum MFI was the highest mean MFI value within the concentration range tested (18 pM to 300 nM). ^b Fold binding was calculated as the maximum MFI above background (secondary antibody alone). h, Human; Mf, Macaca fascicularis (cynomolgus monkey); ND, Not determined because concentration-dependent binding was not observed
binder,measurement,setting,value
"mAb1 (antibody, human IgG1, kappa, V domains shown, Human IgG1; N101D variant of CompAb1; also called N101D Variant; N101D) VH: QVQLQESGPGLVKPSETLSLTCIVSGGSISGYFWNWIRQPPGKGLEWIGYIYYSGTTIYNPSLKSRFTISLDTSKNQFSLKLTSVTAADTAVYYCARESYDPSPRYFDHWGQGTLVTVSS VL: not shown","EC50, NFAT-luciferase in Jurkat/NFAT-Luc/MfFcγR3a effector cells with Jurkat/hCD20/MfGITR target cells",[1],0.016 nM
same,"Fold Change in Activity, NFAT-luciferase in Jurkat/NFAT-Luc/MfFcγR3a effector cells with Jurkat/hCD20/MfGITR target cells",[1],23.9 fold
same,Fold Binding,[2],290 fold
